For one substance, apoptosis in Jurkat cells, flow cytometry (Annexin V); SA-FasL tethered on exosomes, 1 µg exosome protein and apoptosis in Jurkat cells, flow cytometry (Annexin V); SA-FasL tethered on exosomes, 20 µg exosome protein results are on record in patent publication US20220145291A1.

This assay addresses FasR on T-cells (Jurkat cells) (UniProt P25445). Kind of assay: cell-based or functional assay.

Sequence of FasR on T-cells (Jurkat cells) (P25445 26-335 limits assumed): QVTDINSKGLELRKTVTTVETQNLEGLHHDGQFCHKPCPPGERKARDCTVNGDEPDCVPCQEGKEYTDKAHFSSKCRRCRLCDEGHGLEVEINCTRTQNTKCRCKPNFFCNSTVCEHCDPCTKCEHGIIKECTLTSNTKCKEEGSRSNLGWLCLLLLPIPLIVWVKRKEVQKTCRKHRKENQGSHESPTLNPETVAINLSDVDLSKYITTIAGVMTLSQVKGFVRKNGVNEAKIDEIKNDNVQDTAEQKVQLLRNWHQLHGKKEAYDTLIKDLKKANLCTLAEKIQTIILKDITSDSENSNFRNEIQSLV
Sequence of streptavidin-FasL (P22629 37-163): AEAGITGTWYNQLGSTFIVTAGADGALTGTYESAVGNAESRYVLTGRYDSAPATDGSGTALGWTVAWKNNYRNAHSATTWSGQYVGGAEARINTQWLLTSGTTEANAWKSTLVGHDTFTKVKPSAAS

For “streptavidin-FasL (from UniProt P22629 37-163) (ligand)”, the apoptosis in Jurkat cells, flow cytometry (Annexin V); SA-FasL tethered on exosomes, 1 µg exosome protein came out at 17.5% and the apoptosis in Jurkat cells, flow cytometry (Annexin V); SA-FasL tethered on exosomes, 20 µg exosome protein came out at 99.3%.
